Reference: patent US20180346580A1 (INTERVET, published 2018)

T1: canine IL-4 receptor alpha chain (full length) expressed on the surface of CHO DG44 cells (canine)
T1 construct: also called cIL-4Rα; CHO-cIL-4Rα
T1 chain: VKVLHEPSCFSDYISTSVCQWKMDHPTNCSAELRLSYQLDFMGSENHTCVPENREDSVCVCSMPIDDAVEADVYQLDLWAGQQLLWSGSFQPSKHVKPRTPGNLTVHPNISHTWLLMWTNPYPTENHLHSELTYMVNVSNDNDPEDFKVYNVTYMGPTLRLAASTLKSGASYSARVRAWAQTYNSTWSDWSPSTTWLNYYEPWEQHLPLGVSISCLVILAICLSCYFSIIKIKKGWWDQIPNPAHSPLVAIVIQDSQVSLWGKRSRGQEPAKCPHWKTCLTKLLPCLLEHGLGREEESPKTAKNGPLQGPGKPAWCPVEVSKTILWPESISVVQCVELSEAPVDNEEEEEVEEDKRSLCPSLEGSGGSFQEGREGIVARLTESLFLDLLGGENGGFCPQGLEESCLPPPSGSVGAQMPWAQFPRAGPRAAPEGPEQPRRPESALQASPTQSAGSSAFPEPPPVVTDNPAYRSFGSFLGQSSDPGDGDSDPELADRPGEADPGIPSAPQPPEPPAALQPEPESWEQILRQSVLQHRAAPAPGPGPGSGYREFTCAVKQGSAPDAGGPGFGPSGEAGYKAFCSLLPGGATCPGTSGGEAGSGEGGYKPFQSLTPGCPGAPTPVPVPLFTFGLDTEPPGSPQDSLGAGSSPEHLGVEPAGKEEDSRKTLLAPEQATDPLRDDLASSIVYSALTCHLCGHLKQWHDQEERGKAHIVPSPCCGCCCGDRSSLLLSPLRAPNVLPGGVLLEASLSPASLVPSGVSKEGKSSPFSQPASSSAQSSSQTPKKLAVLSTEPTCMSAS

T2: HIS-tagged extracellular domain of canine IL-4 receptor alpha chain (canine)
T2 construct: also called canine IL-4 receptor alpha chain ECD HIS-tagged protein; extracellular domain of canine IL-4Rα
T2 chain: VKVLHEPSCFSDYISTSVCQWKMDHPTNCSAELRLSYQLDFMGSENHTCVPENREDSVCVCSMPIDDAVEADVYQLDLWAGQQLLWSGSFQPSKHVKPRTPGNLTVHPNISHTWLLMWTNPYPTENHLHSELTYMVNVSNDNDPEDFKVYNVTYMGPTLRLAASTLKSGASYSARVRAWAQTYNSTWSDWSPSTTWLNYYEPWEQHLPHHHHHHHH


Assays:
[1] = target: T1, canine IL-4 receptor alpha chain (full …); assay: flow cytometry, binding to CHO-cIL-4Rα cells
[2] = target: T1, canine IL-4 receptor alpha chain (full …); assay: flow cytometry ligand blockade on CHO-cIL-4Rα cells; competitor biotinylated canine IL-4 at 0.32 µg/mL
Experimental: Procedure: [0247] 1. CHO-DH44-canIL-4Rα cell grown to 2-4 ×10⁶ cells/mL with more than 96% viability. [0248] 2. The cells were spun down, the supernatant discarded, and the cells were suspended in FACS buffer to 2×10⁷ cells/mL. [0249] 3. The cells were distributed into a U-shape 96-well plate, 50 μl each well. [0250] 4. The anti-canine IL-4Rα mAbs in FACS buffer was diluted three-fold on a 96-well plate from top down to bottom well, starting at 50 μg/mL. [0251] 5. 50 μl of each diluted Ab was transferred into the cell plate and then incubated on ice for 30 min. [0252] 6. The cells were washed twice with FACS buffer. [0253] 7. The cells were resuspended into 100 μl of biotinylated canine IL-4 at 0.32 μg/mL in FACS buffer and incubated on ice for 30 min. [0254] 8. The cells were washed twice with FACS buffer. [0255] 9. The cells were responded into 100 μl of R-phycoerythin conjugated Streptavidin (1:1000 dilution) in FACS buffer and incubated on ice for 30 min. [0256] 10. The cells were washed twice with FACS buffer. [0257] 11. The cells were brought up to 300 μl in FACS buffer. [0258] 12. 10,000 cells were read for each sample by BD Accuri-C6. [0259] 13. The resulting readout were analyzed by FlowJo to get the mean fluorescent intensity (MFI).

[3] = target: T2, HIS-tagged extracellular domain of …; assay: ELISA on plate-coated HIS-tagged canine IL-4Rα ECD, detection with HRP goat anti-mouse IgG
Experimental: This procedure was repeated as necessary to obtain adequate amounts of mAb from each hybridoma clone. Harvested cell suspensions were centrifuged and the supernatants were filtered through 0.2 micron filter membranes. For antibody purification, each clone's supernatant was purified using a Protein G Sepharose 4 Fast flow 5 mL column (GE Healthcare) by gravity flow. After washing with Tris-EDTA (TE) buffer pH 8.0, bound antibodies were eluted using 0.1 M glycine buffer, pH 2.7, followed by pH neutralization using 1 M Tris, pH 8.0. Antibodies were concentrated and buffer exchanged into phosphate-buffered saline (PBS) using Centriprep YM-10 kDa NMWL centrifugal filter units (Millipore). Antibody concentrations were quantified using spectrophotometry. Purified anti-canine IL-4 receptor α chain mAbs were tested for reactivity with the HIS-tagged ECD domain of canine IL-4 receptor alpha chain by ELISA as follows: HIS-tagged canine IL-4 receptor alpha chain protein is diluted to 10 μg/mL in coating buffer (Carbonate/Bicarbonate pH 9.0) and dispensed at 100 μl/well in 96-well flat bottomed ELISA plates (NUNC). The plates are incubated at 4° C. overnight. The plates are then washed three times with phosphate buffered saline containing 0.05% Tween-20 (PBST). Next, 200 μl of blocking buffer (5% skim milk in PBST) is added to each well and the plates are incubated at 37° C. for 60 minutes. The plates are then washed three times with PBST. Next, 100 μl of test mAbs diluted in blocking buffer is added to the first wells of the appropriate columns. Test mAbs are then diluted three-fold to the appropriate plate position. Following incubation of the plates at 37° C. for 60 minutes, the plates are washed three times with PBST. Next, 100 μl per well of a 1:2,000 dilution of a horseradish peroxidase conjugated goat anti-mouse IgG (KPL) is added to the plates, which are then incubated at 37° C. for 60 minutes. Then the plates are washed three times with PBST, and 100 μl/well of 3,3′,5,5′ tetramethyl benzidine, (TMB) substrate (from KPL) is added to the plates. The color reaction is allowed to develop for 5-20 minutes at 37° C. prior to measuring absorbance at 650 nm.
Various mouse anti-canine IL-4Rα monoclonal antibodies (mAbs) were assayed by ELISA for their ability to bind the extracellular domain of canine IL-4Rα.

| Binder | EC50 [1] | IC50 [2] | EC50 (read off the curve) [3] | binding result [3] |
| --- | --- | --- | --- | --- |
| 1A9 (antibody, V domains shown, member of the group m16; also called mAb 1A9; mouse anti-canine IL-4Rα monoclonal antibody 1A9) VH: QVPLQQSGPELVKPGASVKISCKASGYAFSSSWMNWVKQRPGKGLEWIGRIYPGDGDTKYNGKFKGKATLTADKSSSTAYMQLSSLTSEDSAVYFCARDDYDEASWGQGTLVTVSA VL: DIVMTQSQKFMSTSVGDRVSITCKASQNVRSAVAWYQQKPGQSPKSLIYLASNRHTGVPDRFTGSGSGTDFTLTISNVQSEDLADYFCLQHWNYPFTFGSGTKLEIK |  |  | ~0.2 nM |  |
| 1B12 (antibody, V domains shown, member of the group m16; also called mAb 1B12; mouse anti-canine IL-4Rα monoclonal antibody 1B12) VH: EVQLQQSGPELVKPGASVKISCKASGYTFTDYYMNWVKQSHGKSLEWIGDIIPSNGGTSYNQKFKGKATLTVDKSSSAAYMELRSLTSEDSAVYYCARGISYYGNRYYFTMDYWGQGTSVTVSS VL: DIVMTQAAPSVPVTPGESVSISCRSSKSLLHSNGNTYLFWFVQRPGQSPQLLIYRMSNLASGVPDRFSGSGSGTAFTLRISRVEAEDVGVYYCMQHLEYPFTFGSGTKLDIK |  |  |  | binds |
| mouse anti-canine IL-4Rα monoclonal antibody 2E2 (antibody, V domains shown, Hybridoma-derived mouse antibody; also called mAb 2E2) VH: EVKLVESGGGLVQPGGSLKLSCVASGFTFSDYHMHWVRQTPEKRLEWVAYISKGGGSTYYPDTEKGRFTISRDNAKNTLYLQMSRLKSEDTAMYYCARSPGPSSFYWYFDVWGTGTTVTVSS VL: DIQMTQSPASLSASVGETVTITCRASENIYSYLAWYQQKQGKSPQLLVYNAKTLAEGVPSRFSGSGSGTQFSLKINSLQPEDFGSYYCQHHYGIPVTVGVGTKLELK | 1.2 nM | 2.1 nM |  |  |
| mouse anti-canine IL-4Rα monoclonal antibody 6C12 (antibody, V domains shown, Hybridoma-derived mouse antibody; also called mAb 6C12) VH: QIQLIQSGPELKKPGETVKISCKASGYTFTTFGMSWVKQAPGKGLKWMGWISTYSGVPTYADDFKGRFAFSLETSASTAYLQINNLKNEDTASYFCARHTFQSRGLAYWGQGTLVTVSA VL: DIVMTQSHKFMSTSVGDRVSITCKASQDVITTVAWYQQKPGQSPKLLIYSASYRYTGVPDRFTGSGSGTDFTFTITSVQTEDLAVYYCQQHYSTPWTFGGGTKLEIK | 8.6 nM | 19.3 nM |  |  |
| mouse anti-canine IL-4Rα monoclonal antibody 4D8 (antibody, V domains shown, Hybridoma-derived mouse antibody; also called mAb 4D8) VH: EVTLVESGGGLVQPGGSLKLSCAASGFTFSDYYMYWVRQTPEKRLEWVAYISPGGGSTYYPDTIKGRFTISRDNAKNTLYLQMSRLKSEDTAMYYCTRHGSPYGSSRGAWFAYWGQGTLVTVSA VL: DIQMTQSPASLSASVGETVTITCRASENIYSYLAWYQQKQGKSPQLLVYNGKTLAEGVPARFSGSGSGTQFSLKINSLQPEDFGSYYCQHHDGIPVTFGAGTKLELK | 1.1 nM | 4.2 nM |  |  |

Further lines, results first:

| EC50 [1] | IC50 [2] | EC50 (read off the curve) [3] | binding result [3] | Binder |
| --- | --- | --- | --- | --- |
| 7.5 nM | 53.2 nM | ~0.3 nM |  | mouse anti-canine IL-4Rα monoclonal antibody 11B6 (antibody, V domains shown, Hybridoma-derived mouse antibody; also called mAb 11B6) VH: EVQLQESGPGLAKPSQTLSLTCSVTGYSITSDYWNWIRKFPGNKLEYMGYINYSGNTYYNPSLKSRISITRDTSKNQYYLQLNSVTTEDTATYYCARYGGLRQGSWHFDVWGPGTTVTVSS VL: QIVLTQSPAIMSASPGEKVTISCSASSSVSYMYWYQQKPGSSPKPWIYRTSNLASGVPARFSGSGSGTSYSLTISSMEAEDAATYYCQQYHSYPATFGGGTKLEIK |
|  |  | ~0.1 nM |  | 11D3 (antibody, V domains shown, member of the group m16; also called mAb 11D3; mouse anti-canine IL-4Rα monoclonal antibody 11D3) VH: QIQLVQSGPELKKPGETVKISCKASGYIFTTYGMYWVKQAPGKGLKWMGWINTYSGVPTYVDDFKGRFAFSLETSASTAYLQINNLKNEDTATYFCVVAGWFAYWGQGTLVTVSA VL: DIKMTQSPSSMYASLGERVTITCKASQDIKSYLSWFQQKPGKSPKTLIYRANILIDGVPSRFSGSGSGQDYSLTISSLEYEDMGIYYCLQYDEFPYTFGGGTKLEIK |
|  |  | ~0.1 nM |  | 1A3 (antibody, V domains shown, member of the group m16; also called mAb 1A3; mouse anti-canine IL-4Rα monoclonal antibody 1A3) VH: EVQLVESGGDLVKPGGSLKLSCAASGFTFSDFGMHWVRQAPEKGLGWVAYISSGSGTIYYADTVRGRFTISRDNVKNTLFLQMTSLRSEDTAMYYCVRGDLYYGSSFDAYWGRGTLVTVSA VL: QIVLSQSPAILSASPGEKVTMTCRASSSVSFMFWYQQKPGSSPKPWIYDTSNLASGVPARFSGSGSGTSYSLTISRVEAEDAATYYCQQWSSNPLTFGAGTKLELK |
|  |  | ~0.3 nM |  | 10F2 (antibody, V domains shown, member of the group m16; also called mAb 10F2; mouse anti-canine IL-4Rα monoclonal antibody 10F2) VH: QVHLKESGPGLVAPSQSLSITCTVSGFSLTSYGVSWVRQPPGEGLEWLGVIWGDGSTYFHSALISRLSISKDDSKSQVFLKLNSLQTDDTATYYCAKQGTIYDGYYNYAMDYWGQGTSVTVSS VL: DIVMSQSPSSLTVSVGEKVTMSCKSSQNLLYGGNQKNYLAWYQQKPGQSPKLLIYWASTRESGVPDRFTGSGSGTDFTLTISSVRAEDLAVYYCQQYYDYPYTFGGGTKLEIK |
|  |  |  | binds | 10E10 (antibody, V domains shown, member of the group m16; also called mAb 10E10; mouse anti-canine IL-4Rα monoclonal antibody 10E10) VH: QVQLQQSGPELVKPGASVKLSCKASGYTFTTYDIHWVKQRPGQGLEWIGWIYPRDGRTTYNEKFKAKATLTVDTSSTTAYMELHSLTSEDSAVYFCARSSPFGYWGQGTTLTVSS VL: DIQMTQSSSYLSVSLGGRVTITCKASDHINNWLAWYQQKPGNAPRLLISGATSLETGVPSRFSGSGSGKDYTLSITSLQTEDAATYHCHQYWSIPYTFGGGTKVEIK |
| 1.6 nM | 3.9 nM |  |  | mouse anti-canine IL-4Rα monoclonal antibody 4H3 (antibody, V domains shown, Hybridoma-derived mouse antibody; also called mAb 4H3) VH: QVQLQQPGAELVKPGASVKLSCKASGYTFTNYWIHWMKQRPGRGLEWIGRIDPNSGGTKYNEKFKSKATLTVDKPSITAYMQLSSLTSEDSAVYYCAAFGSTYGFAYWGQGTLVTVSA VL: DIVMSQSPSSLAVSAGEKVTMSCKSSQSLLNSRTRKNYLAWYQQKPGQSPKLLIYWASTRESGVPDRFTGSGSGTDFTLTISSVQAEDLAVYYCKQSYNLYTFGGGTKLEIK |
